The numbers were not newly measured in article PMC4965862, which cites them from elsewhere.

For this data set, the target named is Cys45 (UniProt position 45, AFTGICQGELD). The following applies: reduced enzyme (Cys45 thiol/thiolate).

Take “Alkyl hydroperoxide reductase E (AhpE), one-cysteine peroxiredoxin (Mycobacterium tuberculosis)”: the pKa (in general, the pH at which an ionisable group is half protonated) is on record as 5.2.
